Source: patent US7504234B2, “Assays for S-adenosylmethionine (AdoMet)-dependent methyltransferase activity” (The Regents of the University of Michigan, priority 2006, dated 2009)

T1: hSET8 (Homo sapiens, UniProt Q9NQR1)
T1 construct: A construct of hSET8 encoding residues 191-352 was cloned into the parallel expression vector pHIS2; hexahistidine tag with TEV cleavage site (pHIS2 vector) (N); made in house; host or cells: Escherichia coli BL21 (DE3) Codon Plus RIL
T1 sequence (Q9NQR1 191-352 isoform Q9NQR1-2): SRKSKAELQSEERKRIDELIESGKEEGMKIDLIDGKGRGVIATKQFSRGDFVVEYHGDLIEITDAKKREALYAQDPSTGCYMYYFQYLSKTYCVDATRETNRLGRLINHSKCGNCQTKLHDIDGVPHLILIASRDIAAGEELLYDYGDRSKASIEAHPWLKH

B1: human SET7/9: human histone H3 Lys-4-specific methyltransferase (protein, UniProt Q8WTS6 1-366, looked up)
Histone-lysine …: MDSDDEMVEEAVEGHLDDDGLPHGFCTVTYSSTDRFEGNFVHGEKNGRGKFFFFDGSTLEGYYVDDALQGQGVYTYEDGGVLQGTYVDGELNGPAQEYDTDGRLIFKGQYKDNIRHGVCWIYYPDGGSLVGEVNEDGEMTGEKIAYVYPDERTALYGKFIDGEMIEGKLATLMSTEEGRPHFELMPGNSVYHFDKSTSSCISTNALLPDPYESERVYVAESLISSAGEGLFSKVAVGPNTVMSFYNGVRITHQEVDSRDWALNGNTLSLDEETVIDVPEPYNHVSKYCASLGHKANHSFTPNCIYDMFVHPRFGPIKCIRTLRAVEADEELTVAYGYDHSPPGKSGPEAPEWYQVELKAFQATQQK
B2: mouse G9A: histone H3 Lys-9/27 methyltransferase (protein, UniProt Q9Z148 1-1263, looked up)
Histone-lysine …: MRGLPRGRGLMRARGRGRAAPTGGRGRGRGGAHRGRGRPRSLLSLPRAQASWAPQLPAGLTGPPVPCLPSQGEAPAEMGALLLEKEPRGAAERVHSSLGDTPQSEETLPKANPDSLEPAGPSSPASVTVTVGDEGADTPVGAASLIGDEPESLEGDGGRIVLGHATKSFPSSPSKGGACPSRAKMSMTGAGKSPPSVQSLAMRLLSMPGAQGAATAGPEPSPATTAAQEGQPKVHRARKTMSKPSNGQPPIPEKRPPEVQHFRMSDDMHLGKVTSDVAKRRKLNSGSLSEDLGSAGGSGDIILEKGEPRPLEEWETVVGDDFSLYYDAYSVDERVDSDSKSEVEALAEQLSEEEEEEEEEEEEEEEEEEEEEEEEEDEESGNQSDRSGSSGRRKAKKKWRKDSPWVKPSRKRRKREPPRAKEPRGVNGVGSSGPSEYMEVPLGSLELPSEGTLSPNHAGVSNDTSSLETERGFEELPLCSCRMEAPKIDRISERAGHKCMATESVDGELLGCNAAILKRETMRPSSRVALMVLCEAHRARMVKHHCCPGCGYFCTAGTFLECHPDFRVAHRFHKACVSQLNGMVFCPHCGEDASEAQEVTIPRGDGGTPPIGTAAPALPPLAHDAPGRADTSQPSARMRGHGEPRRPPCDPLADTIDSSGPSLTLPNGGCLSAVGLPPGPGREALEKALVIQESERRKKLRFHPRQLYLSVKQGELQKVILMLLDNLDPNFQSDQQSKRTPLHAAAQKGSVEICHVLLQAGANINAVDKQQRTPLMEAVVNNHLEVARYMVQLGGCVYSKEEDGSTCLHHAAKIGNLEMVSLLLSTGQVDVNAQDSGGWTPIIWAAEHKHIDVIRMLLTRGADVTLTDNEENICLHWASFTGSAAIAEVLLNAQCDLHAVNYHGDTPLHIAARESYHDCVLLFLSRGANPELRNKEGDTAWDLTPERSDVWFALQLNRKLRLGVGNRAVRTEKIICRDVARGYENVPIPCVNGVDGEPCPEDYKYISENCETSTMNIDRNITHLQHCTCVDDCSSSNCLCGQLSIRCWYDKDGRLLQEFNKIEPPLIFECNQACSCWRSCKNRVVQSGIKVRLQLYRTAKMGWGVRALQTIPQGTFICEYVGELISDAEADVREDDSYLFDLDNKDGEVYCIDARYYGNISRFINHLCDPNIIPVRVFMLHQDLRFPRIAFFSSRDIRTGEELGFDYGDRFWDIKSKYFTCQCGSEKCKHSAEAIALEQSRLARLDPHPELLPDLSSLPPINT
B3: Drosophila SU(VAR)3-9: H3 Lys-9-specific histone methyltransferase (protein, UniProt P45975 1-635, looked up)
Histone-lysine …: MATAEAQIGVNRNLQKQDLSNLDVSKLTPLSPEVISRQATINIGTIGHVAHGKSTVVKAISGVQTVRFKNELERNITIKLERLSEKKIKNLLTSKQQRQQYEIKQRSMLRHLAELRRHSRFRRLCTKPASSSMPASTSSVDRRTTRRSTSQTSLSPSNSSGYGSVFGCEEHDVDKIPSLNGFAKLKRRRSSCVGAPTPNSKRSKNNMGVIAKRPPKGEYVVERIECVEMDQYQPVFFVKWLGYHDSENTWESLANVADCAEMEKFVERHQQLYETYIAKITTELEKQLEALPLMENITVAEVDAYEPLNLQIDLILLAQYRAAGSRSQREPQKIGERALKSMQIKRAQFVRRKQLADLALFEKRMNHVEKPSPPIRVENNIDLDTIDSNFMYIHDNIIGKDVPKPEAGIVGCKCTEDTEECTASTKCCARFAGELFAYERSTRRLRLRPGSAIYECNSRCSCDSSCSNRLVQHGRQVPLVLFKTANGSGWGVRAATALRKGEFVCEYIGEIITSDEANERGKAYDDNGRTYLFDLDYNTAQDSEYTIDAANYGNISHFINHSCDPNLAVFPCWIEHLNVALPHLVFFTLRPIKAGEELSFDYIRADNEDVPYENLSTAVRVECRCGRDNCRKVLF
B4: wild-type hSET8: construct of hSET8 encoding residues 191-352, catalytic SET domain (protein, UniProt Q9NQR1 191-352, looked up, fragment)
chain: AAIAKQALKKPIKGKQAPRKKAQGKTQQNRKLTDFYPVRRSSRKSKAELQSEERKRIDELIESGKEEGMKIDLIDGKGRGVIATKQFSRGDFVVEYHGDLIEITDAKKREALYAQDPSTGCYMYYFQYLSKTYCVDATRETNRLGRLINHSKCGNCQTKLHD

Assays:
hSET8 = target: T1, hSET8; assay: isothermal titration calorimetry, wild-type and mutant histone H4 peptides with hSET8; type: binding; conditions: ITC; for histone H4 binding / affinity of hSET8 for mutant histone H4 peptide: 20° C., pH 7.0, saturating AdoHcy; for AdoHcy binding: hSET8 with His-18 mutant H4 peptide
Method: The equilibrium dissociation constants of wild type and mutants of hSET8 and histone H4 were determined using a VP-ITC calorimeter (MicroCal, LLC). […] A saturating concentration of AdoHcy (1.0-2.0 mM) was used in all titrations. ITC data were subsequently analyzed using Origin 7.0 (OriginLab Corp.) with blank injections of ligand into buffer subtracted from the experimental titrations prior to data analysis.

their cognate substrates = conditions: radiometric assay, literature values; cited from earlier work
Lys-20 in histone H4 = assay: MALDI mass spectrometry of methyltransferase reactions (product specificity); type: biochemical
Method: Histone methyltransferase assays were performed with wildtype hSET8 and the Tyr-245 and Tyr-334 mutants (5 μM) as described above and were quenched after 15 min or 24 h by the addition of 0.5% trifluoroacetic acid. Aliquots of the samples were cocrystallized with α-cyano-4-hydroxycinnamic acid (1:1), applied on the target, and dried at room temperature. The mass spectra were acquired on the TofSpec 2E MALDI-TOF mass spectrometer (Waters, Inc.) in reflectron mode, with each spectrum representing the average of 50 laser shots. Close external calibration was used based on the following mixture: bradikinin fragment 1-8, m/z=904.41 (for [M+H]+); angiotensin II, m/z=1046.54; [Glul]-fibrinopeptide B, m/z=1570.68; ACTH (clip 18-39), m/z=2465.20.

| Molecule | histone H4 binding / affinity of hSET8 for mutant histone H4 peptide (hSET8) | AdoHcy binding (hSET8) | turnover number (their cognate substrates) | further results |
| --- | --- | --- | --- | --- |
| H18A: histone H4 peptide (residues 15-24) with His-18 mutated to alanine (Ac-AKRARKVLRD-NH2; UniProt P62805 16-25, looked up, variant H18A) | completely abolishes binding | severely abrogate AdoHcy binding |  | histone H4 binding / affinity of hSET8 for mutant histone H4 peptide (hSET8; listed as His-18 to alanine): completely abolishes both histone H4 binding and methylation |
| H18F: histone H4 peptide (residues 15-24) with His-18 mutated to phenylalanine (Ac-AKRFRKVLRD-NH2; UniProt P62805 16-25, looked up, variant H18F) | modestly affects the affinity | severely abrogate AdoHcy binding |  | histone H4 binding / affinity of hSET8 for mutant histone H4 peptide (hSET8; listed as His-18 to phenylalanine): does not impact the affinity to nearly the same extent as the H347F substitution |
| B1 |  |  | 0.004 s⁻¹ |  |
| B2 |  |  | 0.024 s⁻¹ |  |
| B3 |  |  | 0.11 s⁻¹ |  |
| B4 |  |  |  | methylation state of Lys-20 after reaction with the H4 peptide (Lys-20 in histone H4; 24 h): complete conversion to monomethyl-Lys-20; product specificity (Lys-20 in histone H4; MALDI mass spectrometry): bona fide histone H4 Lys-20 monomethylase |
